According to patent US20110195482:

Columns and labels:
[1] = test system: fibrin of the fibrin plate (fibrinogen converted with 40 units of thrombin)
[2] = biological target: fibrinogen (MP Biomedicals), a human fibrin precursor (UniProt P02671)
[3] = biological target: prothrombin (Sigma), a human blood coagulation factor (UniProt P00734)

For “serine protease present in the venom of Bombus ignitus, activated form (Bi-VSP)”, the “fibrin plate assay, fibrinolytic activity” value [1] was “white zones for the fibirnolysis were formed according to each different concentration”, the “human fibrinogen hydrolysis by Bi-VSP, SDS-PAGE time course (Aα chain)” value [2] was “Aα chain was completely hydrolyzed within 5 min after the reaction” and the “human fibrinogen hydrolysis by Bi-VSP, SDS-PAGE time course (Bβ and γ chains)” value [2] was “Bβ and γ chains were completely hydrolyzed within 60 min”. The “human prothrombin activation by Bi-VSP, SDS-PAGE time course” value [3] was “prothrombin started to convert into an activated form of thrombin 5 min after the reaction”.
